Experimental data: patent publication US20200317779A1

Biological target: CD3 on human T cells (H9 cells, ATCC HTB-176) (human)
Test: flow cytometry on H9 cells, PE anti-human IgG alone (no primary antibody), negative control

Sequence of CD3 on human T cells (H9 cells, ATCC HTB-176) (human) (P07766 23-207, chain 1 of 3): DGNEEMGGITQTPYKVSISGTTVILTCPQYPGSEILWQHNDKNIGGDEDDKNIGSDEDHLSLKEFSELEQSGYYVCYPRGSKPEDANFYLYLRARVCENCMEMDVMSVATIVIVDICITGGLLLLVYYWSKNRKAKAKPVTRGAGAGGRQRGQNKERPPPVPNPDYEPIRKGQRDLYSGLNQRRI
Sequence of CD3 on human T cells (H9 cells, ATCC HTB-176) (human) (P04234 22-171, chain 2 of 3, further chain): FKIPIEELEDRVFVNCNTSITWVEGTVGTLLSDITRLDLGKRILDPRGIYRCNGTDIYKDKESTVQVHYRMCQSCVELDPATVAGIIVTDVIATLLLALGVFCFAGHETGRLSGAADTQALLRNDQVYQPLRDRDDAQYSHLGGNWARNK
Sequence of CD3 on human T cells (H9 cells, ATCC HTB-176) (human) (P09693 23-182, chain 3 of 3, further chain): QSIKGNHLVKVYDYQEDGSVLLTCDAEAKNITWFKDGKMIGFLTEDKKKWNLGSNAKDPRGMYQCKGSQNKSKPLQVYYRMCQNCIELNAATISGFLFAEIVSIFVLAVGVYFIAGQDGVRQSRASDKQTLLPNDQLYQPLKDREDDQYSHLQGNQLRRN

- Mean : PE-A: 138
Substance: a-HuIgG PE (antibody)
